“And” between values parts separate entries of the source, which are not always exact repeats. Identical values can stand only once.
Key:
[1] = target: T1, human ROR1 (tyrosine-protein kinase transmembrane receptor ROR1) (human, UniProt Q01973 30-937); assay: flow cytometry on SK-OV-3 ovarian cancer cells (MFI against antibody concentration); extrapolated value
T1 construct: whole, on cells; the assays used the protein on cells
Experimental: (§1) a) The level of expression of ROR1 is measured on human ovarian cancer cell lines by flow cytometry including PA-1, MCAS, EFO-21, COLO-704, SW-626, KURAMOCHI, OVSAHO, SNU-119, COV362, OVCAR-4, COV318, TYK-nu, ON/KATE, CAOV-4, OAW28, CAOV-3, 59M, ONCO-DG-1, OVCAR-3. OVCAR-5, ES-2, COV-504, OV-90, RMUG-S, COV-644, SNU-840, OVISE, OAW42, OVTOKO, OVMANA, COV-434, OV56, SK-OV-3N2780, IGROV-1, and/or TOV-21G. Briefly, cells are harvested, washed, counted for viability, resuspended at 50,000 cells/well of a 96-well round bottom plate and incubated with Alexa488-labeled anti human ROR1 antibody for 30 min at 4° C. All ROR1 and isotype control antibodies are titrated and analyzed in final concentration range between 0.01-100 nM. […] At the end of incubation time, cells are centrifuged (5 min. at 350 x g), washed twice with FACS buffer, resuspended in 100 u.l FACS buffer and analyzed on a CantoII device running FACS Diva software. Expression of ROR1 is then quantitified as the median fluorescence intensity (MFI) and graphs showing the MFI in function of ROR1 antibody concentrations are plotted. EC50 values are then measured using Prism software (GraphPad). […] The calculated EC50s for binding of ROR1 Mab1 to SK-OV-3 are extrapolated values and may be underestimated. […]

[2] = target: T1, human ROR1 (tyrosine-protein kinase …); assay: flow cytometry on PA-1 ovarian cancer cells (MFI against antibody concentration)
Experimental: as §1

[3] = target: T1, human ROR1 (tyrosine-protein kinase …); assay: flow cytometry, maximum MFI at 10 µg/mL antibody, PA-1 against SK-OV-3 cells
Experimental: as §1

T1 sequence (Q01973 30-937): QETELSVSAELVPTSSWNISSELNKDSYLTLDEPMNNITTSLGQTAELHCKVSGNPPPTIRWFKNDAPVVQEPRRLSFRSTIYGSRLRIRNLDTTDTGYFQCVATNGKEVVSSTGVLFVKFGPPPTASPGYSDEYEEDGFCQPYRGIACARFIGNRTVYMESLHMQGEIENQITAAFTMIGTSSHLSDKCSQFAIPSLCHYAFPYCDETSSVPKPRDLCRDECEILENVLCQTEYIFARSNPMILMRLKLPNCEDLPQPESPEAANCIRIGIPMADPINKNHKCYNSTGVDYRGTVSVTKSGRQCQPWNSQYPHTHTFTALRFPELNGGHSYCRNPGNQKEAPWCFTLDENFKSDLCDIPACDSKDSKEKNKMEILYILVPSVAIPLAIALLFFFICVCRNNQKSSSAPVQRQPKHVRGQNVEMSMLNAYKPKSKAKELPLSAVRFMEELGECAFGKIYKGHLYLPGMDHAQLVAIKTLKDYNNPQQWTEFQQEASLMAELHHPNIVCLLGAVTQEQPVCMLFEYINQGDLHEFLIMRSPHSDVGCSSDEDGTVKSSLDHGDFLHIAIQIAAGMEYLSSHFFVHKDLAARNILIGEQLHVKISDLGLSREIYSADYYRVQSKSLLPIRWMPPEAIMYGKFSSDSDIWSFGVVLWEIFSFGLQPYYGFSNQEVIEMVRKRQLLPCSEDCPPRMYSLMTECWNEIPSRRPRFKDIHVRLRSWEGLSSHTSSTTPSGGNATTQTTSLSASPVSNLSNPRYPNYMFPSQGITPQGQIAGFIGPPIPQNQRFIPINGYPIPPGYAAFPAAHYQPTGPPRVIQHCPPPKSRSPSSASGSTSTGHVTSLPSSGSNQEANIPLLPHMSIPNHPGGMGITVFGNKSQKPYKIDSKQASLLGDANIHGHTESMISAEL

B1: ROR1 Mab1 IgG (anti-ROR1 antibody MAB1) (antibody, V domains shown)
VH: QEQLVESGGRLVTPGGSLTLSCKASGFDFSAYYMSWVRQAPGKGLEWIATIYPSSGKTYYATWVNGRFTISSDNAQNTVDLQMNSLTAADRATYFCARDSYADDGALFNIWGPGTLVTISS
VL: ELVLTQSPSVSAALGSPAKITCTLSSAHKTDTIDWYQQLQGEAPRYLMQVQSDGSYTKRPGVPDRFSGSSSGADRYLIIPSVQADDEADYYCGADYIGGYVFGGGTQLTVTG
notes: also called ROR1 IgG; Mab1 anti-ROR1 antibodies
For B1, the EC50 [1] was ~4.62 nM and ~0.69 µg/mL, the EC50 [2] was 0.87 nM and 0.13 µg/mL and the “maximum MFI on PA-1 cells relative to SK-OV-3 cells” value [3] was ~3 fold.
